These results are taken from the DeepSol protein solubility set.

The nature of the data set: soluble on expression in E. coli; label from the status in PepcDB or PDB records.
Take “MGHHHHHHSHMTNQNVLLNISGVKFVLRIPNAVNLSLINREYEAFNNAQAYRAGLNVETPVLDAKSGVKLTRYLENSNTLSQIQLNEQSCLSQVVNNLYRLHNSEFVFRNVFSVFDEFRQYFSLLENKSAFYQADSRMDKLSAVFWQFEEINKEVILRPCHNDLVPENMLLQDDRLFFIDWEYSGLNDPLFDIATIIEEAHLSKEAADFLLETYCNQTNKYHKTEFQIAHKRLKIHRFCQNVLWFLWTKVKEEHGENFGDYALKRLDAAFKLLEELP”: the “soluble on expression in E. coli” value is “soluble”. As to “MGHHHHHHSHMVLLHVKRGDESQFLLQAPGSTELEELTVQVARVYNGRLKVQRLCSEMEELAEHGIFLPPNMQGLTDDQIEELKLKDEWGEKCVPSGGAVFKKDDIGRRNGQETSGSRCLCYHGDGERCLGPASRRGDDCLPHGVATV”, the “soluble on expression in E. coli” value is reported as “not soluble”. The entry for “MGHHHHHHSHMWKDFIDHISSLLHSVEVEVSYFAAGIIAHLISRGEQAWTLSRSQRNSLLDDLHSAILKWPTPECEMVAYRSFNPFFPLLGCFTTPGVQLWAVCAMQHVCSKNPSRYCSMLIEEGGLQHLYNIKDHEHTDPHVQQIAVAILDSLEKHIVRHGRPPPCKKQPQARLN” is “not soluble”. “MGHHHHHHSHMYAEERRRQIASLTAVEGRVNVTELAGRFDVTAETIRRDLAVLDREGIVHRVHGGAVATQSFQTTELSLDTRFRSASSAKYSIAKAAMQFLPAEHGGLFLDAGTTVTALADLISEHPSSKQWSIVTNCLPIALNLANAGLDDVQLLGGSVRAITQAVVGDTALRTLALMRADVVFIGTNALTLDHGLSTADSQEAAMKSAMITNAHKVVVLCDSTKMGTDYLVSFGAISDIDVVVTDAGAPASFVEQLRERDVEVVIAE”: the “soluble on expression in E. coli” value is on record as “soluble”. Turning to “MGHHHHHHSHPAPAQLVQKAHELMWYVLVKDQKKMIIWFPDMVKDVIGSYKKWCRSILRRTSLILARVFGLHLRLTSLHTMEFALVKALEPEELDRVALSNRMPMTGLLLMILSLIYVKGRGARESAVWNVLRILGLRPWKKHSTFGDVRKLITEEFVQMNYLKYQRVPYVEPPEYEFFWGSRASREITKMQIMEFLARVFKKDPQA”, the “soluble on expression in E. coli” value is given as “not soluble”. The entry for “MGHHHHHHSHPRRLAWCSIDWEQVCLLQRLGAGGFGSVYKATYRGVPVAIKQVNKCTKNRLASRRSFWAELNVARLRHDNIVRVVAASTRTPAGSNSLGTIIMEFGGNVTLHQVIYGAAGHPEGDAGEPHCRTGGQLSLGKCLKYSLDVVNGLLFLHSQSIVHLDLKPANILISEQDVCKISDFGCSEKLEDLLCFQTPSYPLGGTYTHRAPELLKGEGVTPKADIYSFAITLWQMTTKQAPYSGERQHILYAVVAYDLRPSLSAAVFEDSLPGQRLGDVIQRCWRPSAAQRP” is “not soluble”; for “MGHHHHHHSHVAEGQEPAEFWDLLGGKTPYANDKRLQQEILDVQSRLFECSNKTGQFVVTEITDFTQDDLNPTDVMLLDTWDQVFLWIGAEANATEKESALATAQQYLHTHPSGRDPDTPILIIKQGFEPPIFTGWFLAWDPNIWSAGKTYEQLKEELGDAAAIMRITADMKNATLSLNSNDSEPKYYPIAVLLKNQNQELPEDV” it is “soluble”. Turning to “MGHHHHHHSHVVAILGMGWGAGTGLEMPSAASRGASLLNMQSLGLWTWDCLQGHWAPLIHLNSGPPSGAMERSPTWGEAAELWGSHILLPFRIRHKQTLFASLK”, the “soluble on expression in E. coli” value was “not soluble”. The entry for “MGHNMMTTQKWYEHITNVIIGNTANFNSGCPESIDYVDEKKGVPLAAMKYILMYTEAAASHAYLFEHDLKKFKQYAYVAGKLGILQSVDDEDPEPFFFPCDMLNIQDPMFLMLMSDSPQLREFLVRNIDNIANDTEAFVNRYDLNRHMIYNTLLMVEGKQLDRLKQRSEKVLAHPTPSKWLQKRLYDYRFFLAFAEQDAEAMKAALEPLFDKKTARMAAKETLSYFDFYLQPQIVTYAKIASMHGFDLGIDHEIAPRDLTVYDPLPADEYQDIFDFMKQYDLSYPYEYLQDWIDYYTFKTDKLVFGNAKRE” is “not soluble”.

For “MGIHRLWKRFTIDCSGVRRGQTVLDLAGGTGDLTAKFSRLVGETGKVVLADINESMLKMGREKLRNIGVIGNVEYVQANAEALPFPDNTFDCITISFGLRNVTDKDKALRSMYRVLKPGGRLLVLEFSKPIIEPLSKAYDAYSFHVLPRIGSLVANDADSYRYLAESIRMHPDQDTLKAMMQDAGFESVDYYNLTAGVVALHRGYKLEHHHHHH”, the “soluble on expression in E. coli” value was “not soluble”.

As to “MGIRPSADEQDQCFMTRITIVTDAWHPQVNGVVRSIENTNTELARLGVDVRMVTPQSFYSIPCPTYPEIRLSVAGYRRVAVEIEKSQPSFVHIATEGPLGFMARRWCVKNHMRFSTSYHTRFPEYVAARFPVPESWLYAFVRWFHNGGNTCMVATPSLETELEARGVRNLKRWSRGIDAELFHPRTKTKLPFDLPRPIFMTVGRVAVEKNLPEFLDLDLPGSKIVIGDGPARYELQEKYPDVLFTGIKTGEELADAYAQADVFVFPSKTDTFGNTILEALASGVPVAAFPVTGPIDILGGNPAAGALDNNLRDACLAALHCSPQAALALSKSYSWEKASRQFLDNVIHAAGKSLPLLSRSRLAAAALEHHHHHH”, the “soluble on expression in E. coli” value is given as “not soluble”. Under “MGKEKVHINIVVIGHVDSGKSTTTGHLIYKCGGIDKRTIEKFEKEAQEMGKGSFKYAWVLDKLKAERERGITIDIALWKFETAKYYITIIDAPGHRDFIKNMITGTSQADCAVLVVACNKMDSTEPPFSEARFTEITNEVSGFIKKIGYNPKAVPFVPISGFNGDNMLEVSSNMPWFKGWAVERKEGNASGKTLLEALDSIIPPQRPTDRPLRLPLQDVYKIGGIGTVPVGRVETGIIKPGMVVTFAPQNVTTEVKSVEMHHESLPEAVPGDNVGFNVKNVSVKDIRRGSVCSDSKQDPAKEARTFHAQVIIMNHPGQISNGYTPVLDCHTAHIACKFNELKEKVDRRTGKKVEDFPKFLKSGDAGIVELIPTKPLCVESFTDYAPLGRFAVRDMRQTVAVGVIKSVEKSDGSSGKVTKSAQKAAPKKK” stands “not soluble”; under “MGKKELKRGLVVDREAQMIGVYLFEDGKTYRGIPRGKVLKKTKIYAGDYVWGEVVDPNTFAIEEVEERKNLLIRPKVANVDRVIIVETLKMPEFNNYLLDNMLVVYEYFKVEPVIVFNKIDLLNEEEKKELERWISIYRDAGYDVLKVSAKTGEGIDELVDYLEGFICILAGPSGVGKSSILSRLTGEELRTQEVSEKTERGRHTTTGVRLIPFGKGSFVGDTPGFSKVEATMFVKPREVRNYFREFLRYQCKYPDCTHTNEPGCAVKEAVKNGEISCERYKSYLKIIKVYLEEIKELCRED”, “soluble”.

Take “MGKKRKHQDSDSEQSGKRVKKVEEARNGVADMTIDESSDFQVFLIKKPIGVSLEDLEALKWSNDEEVLTKTKLKTESGVFRAIVAPKSKKERMVHIPAFREREEADSKNIKAQSFVTGAITILPQEVKPKVLGGFIYEEGEEPVEGSSEVHPGLKKIKKTAILDLESRQQRNKAYGTTTEGDGKPRKLANIIEKMN”: the “soluble on expression in E. coli” value is recorded as “soluble”. As to “MGKMIPYVIDLDAIFDLSSIEIYRLLTSSLSNVRYYPPKDLLKTVINDFDISKFKPFPDSQYLEELNYRARIYVITNLPKIEAKLLLVRYNLDAFIQDVISPEDINRYFPSKEVLVLISRKTNSPLGSITFITPHIDYAILTSNLGMRTILIRNSISLPRDIRVEIRKSLVELAEITAQHKIDSEAGDSALRCQ”, the “soluble on expression in E. coli” value is recorded as “not soluble”. Under “MGKNEILWGIAPIGWRNDDMPEIGAGNTLQHLLSDIVVARFQGTEVGGFFPEPAILNKELKLRNLRIAGKWFSSFILRDGLGEAAKTFTLHCEYLQQVNADVAVVSEQTYSVQSLEKNVFTEKPHFTDDEWERLCEGLNHLGEIAAQHGLKLVYHHHLGTGVQTAEEVDRLMAGTDPAHVHLLYDTGHAYISDGDYMGMLEKHIGRIKHVHFKDARLNVMEQCRLEGQSFRQSFLKGMFTVPGDGCIDFREVYQLLLKHSYSGWIVIEAEQDPDVANPLEYALIARNYIDQQLLDLALEHHHHHH” stands “not soluble”; under “MGKRMTFDTAKSRFQEKFPHLELLEFSGIYKPSSVRCPTHGVVQLLYYDTAIKSKYGCPECGKLKMKENTPPQNQKPVSILDTATGETLTFPSVQAAAKALNTPYGSIRTKLDGRSNPDNLVCNRYKVLL”, “soluble”. Under “MGKRVLIVDDAAFMRMMLKDIITKAGYEVAGEATNGREAVEKYKELKPDIVTMDITMPEMNGIDAIKEIMKIDPNAKIIVCSAMGQQAMVIEAIKAGAKDFIVKPFQPSRVVEALNKVSK” stands “soluble”; under “MGLEDDFLLEDADDEKTVEFIKNYLPQELKEKFEDDELYYFLDLIDEYYSESGILDAQPDNDGYVNIDLEEVVAYIVKEAKKDEMGEYDPEEILFVVQGEMEYGNSLGQVD”, “not soluble”. As for “MGLLDMIGPVMVGPSSSHTAGACRLALLARHLLGEKPKRVEFGLHGSFAKTGKGHGTHLALAAGVLGLTPDDERLKESLSLAEREGVEVVFKEVELGDVHPNTVRMVLEGEKERLAVTGSSLGGGLVRVFDVDGFEVRITGSAPTLVIKNVDTPGVVARVARILADDEVNIAYLTVSRKKRGGEAMMSIEVDRPLSEVPLRYLEHLSYILWVRQIPPVMG”, the “soluble on expression in E. coli” value is recorded as “soluble”. Under “MGLSPGQTSVSFLWPLLEVRDHNTGRGLVPATVLTPGSPETLLELRQAFLGSRQARHGHDAAPSSGQQGCSVDRTAGRPVLGWRLRNSLTGQEGRQHLHLSGIRTSRKAKEYKPVFFGATEISVLMAVAESLREPPPPQWGWFLSSLFLKIF” stands “not soluble”; under “MGNKICQFKLVLLGESAVGKSSLVLRFVKGQFHEFQESTIGAAFLTQTVCLDDTTVKFEIWDTAGQERYHSLAPMYYRGAQAAIVVYDITNEESFARAKNWVKELQRQASPNIVIALSGNKADLANKRAVDFQEAQSYADDNSLLFMETSAKTSMNVNEIFMAIAKKLPKN”, “soluble”; under “MGNTSSERAALERHGGHKTPRRDSSGGTKDGDRPKILMDSPEDADLFHSEEIKAPEKEEFLAWQHDLEVNDKAPAQARPTVFRWTGGGKEVYLSGSFNNWSKLPLTRSHNNFVAILDLPEGEHQYKFFVDGQWTHDPSEPIVTSQLGTVNNIIQVKKTDFEVFDALMVDSQKCSDVSELSSSPPGPYHQEPYVCKPEERFRAPPILPPHLLQVILNKDTGISCDPALLPEPNHVMLNHLYALSIKDGVMVLSATHRYKKKYVTTLLYKPI”, “soluble”. On to “MGPAHKARDDGEGGWSMNSHPPLSVQTLNTLDRKAFTTALHFAFELSPWVVERAWDARPFASVETMHAAMMAVLDAASTADKLALIRAHPELAGKAAIAKQLTAESNAEQASAGLDKLTPDEFARFHALNAAYNTRFGFPFIICVRLNDKASILEAMAARLSNDEASEIAQAITQIGLISKLRLLDAVTHLEHHHHHH”, for which the “soluble on expression in E. coli” value is recorded as “not soluble”. Under “MGPHSMRYFETAVSRPGLEEPRYISVGYVDNKEFVRFDSDAENPRYEPRAPWMEQEGPEYWERETQKAKGQEQWFRVSLRNLLGYYNQSAGGSHTLQQMSGCDLGSDWRLLRGYLQFAYEGRDYIALNEDLKTWTAADMAAQITRRKWEQSGAAEHYKAYLEGECVEWLHRYLKNGNATLLRTDSPKAHVTHHPRSKGEVTLRCWALGFYPADITLTWQLNGEELTQDMELVETRPAGDGTFQKWASVVVPLGKEQNYTCRVYHEGLPEPLTLRWEPPPST” stands “soluble”; under “MGQERLDNANPTLFDSKPRHRPVTGTERDESVEDPIDSWEIFDLIRDINDPEHPYTLEQLNVVQEELIKVFIDEEETFVKVNFTPTIPHCSMATLIGLAIRVKLLRSLHPKVKVSVSITPGSHSTEESINRQLADKERVAAAMENQGLMHAVNECLRVPE”, “not soluble”.
